Source: article PMC6601540 (mAbs, 2019)
Several values for one entry are separate records, joined by “and”; a condition that tells them apart may be missing. Equal entries are not always repeated.

Tests used:
[1] = biological target: refolded PD-1 protein (L25-R147) expressed in E. coli (Homo sapiens, UniProt Q15116); assay: SPR
[2] = biological target: recombinant human PD-1 extracellular domain (ECD) fusion protein (human, UniProt Q15116); assay: ELISA
[3] = biological target: human PD-1 on 293T cells stably transfected with human PD-1 (human, UniProt Q15116); assay: flow cytometry on cells
human PD-1 on 293T cells stably transfected with human PD-1, sequence (Q15116 25-288): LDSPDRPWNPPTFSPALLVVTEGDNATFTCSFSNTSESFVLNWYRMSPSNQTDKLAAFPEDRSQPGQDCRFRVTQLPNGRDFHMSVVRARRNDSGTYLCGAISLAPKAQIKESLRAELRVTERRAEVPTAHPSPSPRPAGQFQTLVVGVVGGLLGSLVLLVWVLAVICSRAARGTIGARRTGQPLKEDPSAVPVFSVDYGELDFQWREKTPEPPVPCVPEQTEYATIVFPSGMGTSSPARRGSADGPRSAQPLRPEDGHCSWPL

recombinant human PD-1 extracellular domain (ECD) fusion protein, sequence (Q15116 25-170): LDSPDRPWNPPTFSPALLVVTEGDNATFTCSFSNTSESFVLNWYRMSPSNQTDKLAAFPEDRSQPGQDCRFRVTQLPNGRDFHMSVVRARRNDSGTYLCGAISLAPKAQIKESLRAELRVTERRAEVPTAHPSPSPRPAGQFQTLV
refolded PD-1 protein (L25-R147) expressed in E. coli, sequence (Q15116 25-147): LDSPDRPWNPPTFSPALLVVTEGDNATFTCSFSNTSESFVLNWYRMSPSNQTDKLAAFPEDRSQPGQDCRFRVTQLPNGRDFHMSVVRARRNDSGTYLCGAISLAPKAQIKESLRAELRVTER

Kd [1]: 0.324 nM
IC50 [2]: 0.8 nM and 1.3 nM
IC50 [3]: 1.3 nM and 3.7 nM
B1: toripalimab (antibody, V domains shown)
VH: QGQLVQSGAEVKKPGASVKVSCKASGYTFTDYEMHWVRQAPIHGLEWIGVIESETGGTAYNQKFKGRVTITADKSTSTAYMELSSLRSEDTAVYYCAREGITTVATTYYWYFDVWGQGTTVTVSS
VL: DVVMTQSPLSLPVTLGQPASISCRSSQSIVHSNGNTYLEWYLQKPGQSPQLLIYKVSNRFSGVPDRFSGSGSGTDFTLKISRVEAEDVGVYYCFQGSHVPLTFGQGTKLEIK
